# Experimental data from CN109232738A (GENSCRIPT NANJING CO LTD, dated 2019).
# Changes are numbered by the printed parent chain.
# T1: 人OX40 expressed on cells (表达OX40的CHO细胞; OX40过表达的功能细胞系) (human, UniProt P43489 29-277)
# T1 sequence (looked up): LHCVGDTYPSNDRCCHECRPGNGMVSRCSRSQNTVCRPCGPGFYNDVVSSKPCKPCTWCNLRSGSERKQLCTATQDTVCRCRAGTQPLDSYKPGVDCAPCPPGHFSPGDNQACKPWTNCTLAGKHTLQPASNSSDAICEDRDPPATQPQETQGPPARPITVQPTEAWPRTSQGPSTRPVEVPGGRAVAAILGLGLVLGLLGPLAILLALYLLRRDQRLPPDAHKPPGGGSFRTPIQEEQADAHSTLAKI
# B1: 9G4C8B11 (antibody, V domains shown)
# VH: DVQLQESGPGLVKPSQSLSLTCSVTGYSITSGYYWNWIRQFPGNKLEWMGYISYDGSNNYNPSLKNRISITRDTSKNQFFLKLNSVTTEDTATYYCARDRAYYSNYVGWYFDVWGTGTTVTVSS
# VL: DIVLTQSPASLAVSLGQRATISCRASESVDNYGNSFMHWYQQTPGQPPKLLIYRASNLESGIPAKFSGSGSRTDFTLTINPVEADDVATYYCQQSNEDPLTFGAGTKLELK
# B2: 51E2G12D6 (antibody, V domains shown)
# VH: QVTLKESGPGILQPSQTLSLTCSFSGFSLDTSGMGVTWIRQPSGKGLEWLAHIYWDDDKHYNPSLKSRLTISKDTSSTQVLLKITSVVTADTATYYCARRALGAMDYWGQGTSVTVSS
# VL: DIQMTQTTSSLSASLGDRVTISCRASQDISHYLNWYQQKPDGTVKLLIYYTSTLHSGVPSRFSGSGSGTDYSLTISNLEQEDIATYFCQQGKTLPPTFGAGTELELK
# B3: 99A2A8D4E8 (antibody, V domains shown)
# VH: QIQLVQSGPELKKPGETVKISCKASGYTFTDYSMHWVKQAPGKGLKWMGWISTETGEPTYADDFKGRFAFSLETSASTAYLQIKNLKNEDTASYFCARVRPWYLAVWGAGTTVTVSS
# VL: B2 VL with H31N, T53R, H55Y, T69A, I75V, G91A, K92N, P96L, E103K
# B4: 17B12G2C3 (antibody, V domains shown)
# VH: EVQLQQSGPELVKPGASVKISCKASGYTFTDYYMNWVKQSHGKSLEWIGDINPNNGGTNYNQKFKGKATLTVDKSSSTTYMELRSLTSEDSAVYYCARSGGWLLQDYWGQGTTLTVSS
# VL: B2 VL with S22T, Q27L, H31N, L46F, T53R, K92N, P96Y, A100G, E103K, L106I
# B5: 68G8C4B12 (antibody, V domains shown)
# VH: QVQLKESGPGLVAPSQSLSITCTVSGFSLTNYGVHWVRQPPGKGLEWLGVIWDDGNTNYNSALMSRLSINKDNSKSQVFVTMNSLQIDDTAMYYCALFDGYYGWFAYWGQGTLVTVSS
# VL: B2 VL with H31F, T53R, I83F, K92H, P96W, A100G, T102S, E103K, L106I
# B6: 83C2H3B6 (antibody, V domains shown)
# VH: QVQLKQSGPGLVQPSQSLSITCTVSGFSLTSYGVHWVRQSPGKGLEWLGVIWSGGSTDYNAAYISRLSISKDNSKSQVFFKMNSLQADDTATYYCANYDYDVPYWGQGTLVTVSA
# VL: DIQMTQSPASQSASLGESVTITCLASQTIGTWLAWYQQKPGKSPQLLIYAATSLADGVPSRFSGSGSGTKFSFKISSLQAEDFVSYYCQQLYSTPFTFGSGTKLEIK
# B7: OX40L (ligand, UniProt P23510 51-183, looked up)
# chain: QVSHRYPRIQSIKVQFTEYKKEKGFILTSQKEDEIMKVQNNSVIINCDGFYLISLKGYFSQEVNISLHYQKDEEPLFQLKKVRSVNSLMVASLTYKDKVYLNVTTDNTSLDDFHVNGGELILIHQNPGEFCVL
# Target: T1, 人OX40 expressed on cells (表达OX40的CHO细胞; …)
# Assay: cell-based or functional assay
Binder,"IL-8 secretion by OX40 over-expressing functional cell line (activation), EC50","inhibition of IL-8 secretion by OX40 over-expressing functional cell line, IC50","inhibition of IL-8 secretion by OX40 over-expressing functional cell line, given as EC50"
B1,6.5 nM,,
B2,,1.45 nM,
B3,0.58 nM,,
B4,,8.23 nM,
B5,,,2.36 nM
B6,,68 nM,
B7,2.18 nM,,

# Target: T1, 人OX40 expressed on cells (表达OX40的CHO细胞; …)
# Assay: flow cytometry on OX40-expressing CHO cells, 5 μg/ml antibody
row,Binder,结合信号值 relative to control sample (fold)
1,B1,200 fold
2,B2,200 fold
3,B3,200 fold
4,B4,200 fold
5,B5,200 fold
6,B6,200 fold
